Reference: patent US20240018237A1 (SICHUAN KELUN BIOTECH BIOPHARMACEUTICAL, published 2024)
Residue numbers refer to the chain shown, from its start.

B1: 3D8-Hu46 (antibody, human IgG1, kappa, V domains shown)
VH: EVQLVESGGGLVQPGGSLRLSCAASGFTFSSYAMSWVRQAPGKGLEWVSSINSGGSTYYPDSVKGRFTISRDNSKNTLYLQMNSLRAEDTAVYYCARVNYYGYGDYAMDYWGQGTLVTVSS
VL: DIQMTQSPSSLSASVGDRVTITCQASQDINSYLSWFQQKPGKSPKTLIYRANRLVTGVPSRFSGSGSGTDYTFTISSLQPEDIATYYCLQYDEFPYTFGGGTKLEIKR
notes: humanized, human IgG1 / kappa
B2: 38F8-Hu27 (antibody, human IgG1, kappa, V domains shown)
VH: EVQLVESGGGLVQPGGSLRLSCAASGFTFSNYAMSWVRQAPGKGLEWVASISSGGPTYYPDSVKGRFTVSRDNSKNTLYLQMNSLRAEDTAVYYCARGYRYDVNWYFDVWGAGTMVTVSS
VL: B1 VL with N30S, S31N, S34T, Y49H, T85I, L104V
notes: humanized, human IgG1 / kappa
B3: 38F8-Hu26 (antibody, human IgG1, kappa, V domains shown)
VH: B2 VH
VL: B1 VL with S34T, Y49H, Y71F, L104V
notes: humanized, human IgG1 / kappa
B4: 3D8-Hu86 (antibody, human IgG1, kappa, V domains shown)
VH: B1 VH with G42E, G44R, N52S
VL: B1 VL
notes: humanized, human IgG1 / kappa
B5: 3D8-Hu25 (antibody, human IgG1, kappa, V domains shown)
VH: B1 VH with S49A, S74A, T77S
VL: B1 VL with S43A, Y71F
notes: humanized, human IgG1 / kappa
B6: 3D8-HuC44 (antibody, human IgG1, kappa, V domains shown)
VH: B1 VH
VL: B1 VL with N30S, S31N, S34T, Y49H, Y71F, L104V
notes: humanized, human IgG1 / kappa
B7: 3D8-HuC94 (antibody, human IgG1, kappa, V domains shown)
VH: B1 VH with G42E, G44R, N52S, S53N
VL: B1 VL with N30S, S31N, S34T, Y49H, Y71F, L104V
notes: humanized, human IgG1 / kappa
B8: 3D8-Hu55 (antibody, human IgG1, kappa, V domains shown)
VH: B1 VH with D72E, S74A, T77S, E88G
VL: B1 VL with S43A, Y71F
notes: humanized, human IgG1 / kappa
B9: 3D8-Hu57 (antibody, human IgG1, kappa, V domains shown)
VH: B1 VH with D72E, S74A, T77S, E88G
VL: B1 VL with N30S, S31N
notes: humanized, human IgG1 / kappa
B10: 3D8-Hu85 (antibody, human IgG1, kappa, V domains shown)
VH: B1 VH with G42E, G44R, N52S
VL: B1 VL with S43A, Y71F
notes: humanized, human IgG1 / kappa
B11: 3D8-Hu97 (antibody, human IgG1, kappa, V domains shown)
VH: B1 VH with G42E, G44R, N52S, S53N
VL: B1 VL with N30S, S31N
notes: humanized, human IgG1 / kappa
B12: 3D8-Hu47 (antibody, human IgG1, kappa, V domains shown)
VH: B1 VH
VL: B1 VL with N30S, S31N
notes: humanized, human IgG1 / kappa
B13: 3D8-HuC84 (antibody, human IgG1, kappa, V domains shown)
VH: B1 VH with G42E, G44R, N52S
VL: B1 VL with N30S, S31N, S34T, Y49H, Y71F, L104V
notes: humanized, human IgG1 / kappa
B14: 3D8-Hu27 (antibody, human IgG1, kappa, V domains shown)
VH: B1 VH with S49A, S74A, T77S
VL: B1 VL with N30S, S31N
notes: humanized, human IgG1 / kappa
B15: 3D8-HuC54 (antibody, human IgG1, kappa, V domains shown)
VH: B1 VH with D72E, S74A, T77S, E88G
VL: B1 VL with N30S, S31N, S34T, Y49H, Y71F, L104V
notes: humanized, human IgG1 / kappa
B16: 3D8-Hu95 (antibody, human IgG1, kappa, V domains shown)
VH: B1 VH with G42E, G44R, N52S, S53N
VL: B1 VL with S43A, Y71F
notes: humanized, human IgG1 / kappa
B17: 38F8-Hu24 (antibody, human IgG1, kappa, V domains shown)
VH: B2 VH
VL: B1 VL with N30S, S31N, S34T, Y49H, Y71F, L104V
notes: humanized, human IgG1 / kappa
B18: 3D8-Hu45 (antibody, human IgG1, kappa, V domains shown)
VH: B1 VH
VL: B1 VL with S43A, Y71F
notes: humanized, human IgG1 / kappa
B19: 3D8-Hu87 (antibody, human IgG1, kappa, V domains shown)
VH: B1 VH with G42E, G44R, N52S
VL: B1 VL with N30S, S31N
notes: humanized, human IgG1 / kappa
B20: 38F8-Hu16 (antibody, human IgG1, kappa, V domains shown)
VH: B2 VH with A23T, P60A, K75R, A112R, M115L
VL: B1 VL with S34T, Y49H, Y71F, L104V
notes: humanized, human IgG1 / kappa
B21: 3D8-Hu26 (antibody, human IgG1, kappa, V domains shown)
VH: B1 VH with S49A, S74A, T77S
VL: B1 VL
notes: humanized, human IgG1 / kappa
B22: 3D8-Hu96 (antibody, human IgG1, kappa, V domains shown)
VH: B1 VH with G42E, G44R, N52S, S53N
VL: B1 VL
notes: humanized, human IgG1 / kappa
B23: 3D8-Hu56 (antibody, human IgG1, kappa, V domains shown)
VH: B1 VH with D72E, S74A, T77S, E88G
VL: B1 VL
notes: humanized, human IgG1 / kappa
B24: 38F8-Hu14 (antibody, human IgG1, kappa, V domains shown)
VH: B2 VH with A23T, P60A, K75R, A112R, M115L
VL: B1 VL with N30S, S31N, S34T, Y49H, Y71F, L104V
notes: humanized, human IgG1 / kappa
B25: 38F8-Hu17 (antibody, human IgG1, kappa, V domains shown)
VH: B2 VH with A23T, P60A, K75R, A112R, M115L
VL: B1 VL with N30S, S31N, S34T, Y49H, T85I, L104V
notes: humanized, human IgG1 / kappa
B26: 38F8-Hu18 (antibody, human IgG1, kappa, V domains shown)
VH: B2 VH with A23T, P60A, K75R, A112R, M115L
VL: B1 VL with S34T, Y49H, T85I, L104V
notes: humanized, human IgG1 / kappa
B27: 38F8-Hu28 (antibody, human IgG1, kappa, V domains shown)
VH: B2 VH
VL: B1 VL with S34T, Y49H, T85I, L104V
notes: humanized, human IgG1 / kappa

target: T1, human ROR1 (full-length, on the cell surface) (human, UniProt Q01973 30-937); assay: flow cytometry, A549 cells
T1 construct: whole, on cells; the tumour cell lines carry their own ROR1; also called Ba/F3-ROR1 cells; Jeko-1
Description: (§1) The affinities of the anti-human ROR1 humanized antibodies to Ba/F3-ROR1, Jeko-1, HT-29 and A549 cells were detected by flow cytometry. The specific experimental steps were as follows: the BaBF3-ROR1, Jeko-1, HT-29 and A549 cells were incubated with the purified humanized antibodies of different concentration gradients on ice for 30 minutes, and the anti-ROR1 antibody UC961 with human IgG1 and the anti-TNP antibody were used as positive and negative controls, respectively.

T1 sequence (Q01973 30-937): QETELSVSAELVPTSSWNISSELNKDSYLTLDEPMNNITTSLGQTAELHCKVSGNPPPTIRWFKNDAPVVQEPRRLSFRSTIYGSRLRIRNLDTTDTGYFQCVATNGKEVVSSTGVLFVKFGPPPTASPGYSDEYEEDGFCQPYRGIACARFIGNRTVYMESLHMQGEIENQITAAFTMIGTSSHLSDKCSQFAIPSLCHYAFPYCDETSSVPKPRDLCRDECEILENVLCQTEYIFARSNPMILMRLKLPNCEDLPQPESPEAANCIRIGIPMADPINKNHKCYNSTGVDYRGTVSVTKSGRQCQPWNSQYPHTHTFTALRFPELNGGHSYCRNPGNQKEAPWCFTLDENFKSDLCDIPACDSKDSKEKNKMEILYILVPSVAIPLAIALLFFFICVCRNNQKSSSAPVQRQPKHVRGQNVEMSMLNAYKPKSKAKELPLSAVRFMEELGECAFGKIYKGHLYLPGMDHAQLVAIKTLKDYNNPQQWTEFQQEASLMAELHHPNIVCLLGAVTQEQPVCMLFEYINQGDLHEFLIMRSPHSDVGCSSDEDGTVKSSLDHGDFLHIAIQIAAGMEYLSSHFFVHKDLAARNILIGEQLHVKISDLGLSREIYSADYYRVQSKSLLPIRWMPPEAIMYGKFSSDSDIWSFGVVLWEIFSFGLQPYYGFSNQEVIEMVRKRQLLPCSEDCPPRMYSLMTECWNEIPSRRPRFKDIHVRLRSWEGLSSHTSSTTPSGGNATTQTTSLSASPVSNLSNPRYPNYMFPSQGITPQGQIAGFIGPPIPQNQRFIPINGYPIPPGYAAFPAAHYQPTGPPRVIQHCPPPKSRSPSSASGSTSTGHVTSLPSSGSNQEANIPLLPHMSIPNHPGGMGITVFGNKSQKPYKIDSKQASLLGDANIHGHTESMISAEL

Binder | EC50
B1 | 0.2 nM
B2 | 0.27 nM
B3 | 0.29 nM
B4 | 0.28 nM
B5 | 0.22 nM
B6 | 0.18 nM
B7 | 1.38 nM
B8 | 0.23 nM
B9 | 0.27 nM
B10 | 0.45 nM
B11 | 0.58 nM
B12 | 0.31 nM
B13 | 0.85 nM
B14 | 0.91 nM
B15 | 0.23 nM
B16 | 0.56 nM
B17 | 0.21 nM
B18 | 0.19 nM
B19 | 0.55 nM
B20 | 0.22 nM
B21 | 0.2 nM
B22 | 0.54 nM
B23 | 0.3 nM
B24 | 0.34 nM
B25 | 0.21 nM
B26 | 0.28 nM
B27 | 0.34 nM

target: T1, human ROR1 (full-length, on the cell …); assay: flow cytometry, Jeko-1 cells
Description: as §1

Binder | EC50
B1 | 0.08 nM
B2 | 0.07 nM
B3 | 0.09 nM
B4 | 0.05 nM
B5 | 0.07 nM
B6 | 0.03 nM
B7 | 0.06 nM
B8 | 0.04 nM
B9 | 0.13 nM
B10 | 0.11 nM
B11 | 0.43 nM
B12 | 0.08 nM
B13 | 0.06 nM
B14 | 0.04 nM
B15 | 0.03 nM
B16 | 0.13 nM
B17 | 0.05 nM
B18 | 0.08 nM
B19 | 0.17 nM
B20 | 0.08 nM
B21 | 0.08 nM
B22 | 0.11 nM
B23 | 0.09 nM
B24 | 0.08 nM
B25 | 0.07 nM
B26 | 0.11 nM
B27 | 0.12 nM

target: T1, human ROR1 (full-length, on the cell …); assay: flow cytometry, Ba/F3-ROR1 cells
Description: as §1

Binder | EC50
B1 | 0.39 nM
B2 | 0.99 nM
B3 | 0.77 nM
B4 | 0.3 nM
B5 | 0.29 nM
B6 | 0.28 nM
B7 | 0.22 nM
B8 | 0.33 nM
B9 | 0.37 nM
B10 | 0.25 nM
B11 | 0.3 nM
B12 | 0.28 nM
B13 | 0.19 nM
B14 | 0.2 nM
B15 | 0.23 nM
B16 | 0.32 nM
B17 | 0.98 nM
B18 | 0.33 nM
B19 | 0.21 nM
B20 | 0.94 nM
B21 | 0.29 nM
B22 | 0.3 nM
B23 | 0.33 nM
B24 | 0.84 nM
B25 | 1.48 nM
B26 | 0.82 nM
B27 | 1.32 nM

target: T1, human ROR1 (full-length, on the cell …); assay: flow cytometry, HT-29 cells
Description: as §1

Binder | EC50
B1 | 0.35 nM
B2 | 0.25 nM
B3 | 0.33 nM
B4 | 0.28 nM
B5 | 0.23 nM
B6 | 0.16 nM
B7 | 0.74 nM
B8 | 0.17 nM
B9 | 0.28 nM
B10 | 0.25 nM
B11 | 0.52 nM
B12 | 0.29 nM
B13 | 1.3 nM
B14 | 0.27 nM
B15 | 0.19 nM
B16 | 0.36 nM
B17 | 0.24 nM
B18 | 0.2 nM
B19 | 0.27 nM
B20 | 0.31 nM
B21 | 0.26 nM
B22 | 0.3 nM
B23 | 0.29 nM
B24 | 0.24 nM
B25 | 0.29 nM
B26 | 0.35 nM
B27 | 0.24 nM
